Data reported in the DeepSol protein solubility set.

assay: soluble on expression in E. coli; label from the status in PepcDB or PDB records

| Sequence | soluble on expression in E. coli |
| --- | --- |
| SASAVFEGTSLVNMFVRGCWVNGIRRLIVSRRGDEEEFFEIRTEWSDRSVLYLHRSFADLGRLCKRLRDAFPEDRSELARTPLRQGLLAIKGAHDIETRLNEVEKLLETVISMPCKYSRSEVVLTFFERSPLDQVLKNDNVHKIQPSFQSPVKISEAKEGTGALRTGVVDGCEPPGGCWELSVGLLEEHQVFLTAERIFSPRKAFLRNHEVQWILFGKHRDHSH | soluble |
| SASFDGPKFKMTDGSYVQTKTIDVGSSTDISPYLSLIREDSILNGNRAVIFDVYWDVGFPETETKTKTSGWSLSSVKLSTRNLCLFLRLPKPFHDNLKDLYRFFASKFVTFVGVQIEEDLDLLRENHGLVIRNAINVGKLAAEARGTLVLEFLGTRELAHRVLWSDLGQLDSIEAKWEKAGPEEQLEAAAIEGWLIVNVWDQLSDE | soluble |
| SASMDVEEFIGQNRQLADRVEAFRGFSESDKHWKGRREFIFRNMADFPEPQVDHLLALSMVWQNHVFMGCRYSSELLQRVMEMAEGIEVEDAPVFKTRDEIIRQQKQR | soluble |
| SATAQLSHCITIHKASKETVFPSQITNEHESLKMVKKLFATSISCITYLRGLFPESSYGERHLDDLSLKILREDKKCPGSLHIIRWIQGCFDALEKRYLRMAVLTLYTDPMGSEKVTEMYQFKFKYTKEGATMDFDSHSSSTSFESGTNNEDIKKASVLLIRKLYILMQDLEPLPNNVVLTMKLHYYNAVTPHDYQPLGFKEGVNSHFLLFDKEPINVQVGFVSTGFHSMKVKVMTEATKVIDLENNLFRENSTTEIAHQGLDCDEEEECNDHIQRMNFVCSQQSSECSRKKRKVSEPVKVFIPNRK | soluble |
| SDFPPTKLDYHVDMFNLQSHSRFLSLFKAQDGRIALILESTVFHPQGGGQPSDTGLIVFSGSDLKFSVQDVRSKDGIVLHYGVFEGSNPESGIDSEKGKEVYLTVDESRRKLNSRLHSAGHLLDMCMQKVGLGHLEPGKGYHFPDGPFVEYKGSVPQEEFQVKQKELEAEANELISKGGKVYAAILPYEEASVLCGGSLPDYISKGSTPRIIKLGDSPGCPCGGTHVSNLSDIISMKMRTKKGMTKVFYTIAS | soluble |
| SDIEHILTAIAVLLEKRLDYDRGVIMMADAGGSALRVLASYGFDEAGRRVMHETPIALDGVGPRGVVAASFLDQKPFLVNDLDEINHLIPPLHRELGRRLGIRSFISCPIVCEGQSLGVLAVDTIRTG | not soluble |
| SDKEYVGFAALPNQLHRKSVKKGFDFTLMVAGESGLGKSTLINSLFLTNLYEDRQVPEASARLTQTLAIERRGVEIEEGGVKVKLTLVDTPGFGDSVDCSDCWLPVVKFIEEQFEQYLRDESGLNRKNIQDSRVHCCLYFISPFGRGLRPLDVAFLRAVHEKVNIIPVIGKADALMPQETQALKQKIRDQLKEEEIHIYQFPECDSDEDEDFKRQDAEMKESIPFAVVGSCEVVRDGGNRPVRGRRYSWGTVEVENPHHCDFLNLRRMLVQTHLQDLKEVTHDLLYEGYRARCLQSLARPGARDRASRSKLSRQSATEIPLPMLPLADTEKLIREKDEELRRMQEMLEKMQAQMQQSQAQGEQSDAL | soluble |
| SDMGTSALSKKPWWTLPQNFHAPMVFHMEEDQEELIFGHGDTYLRCIEVHSHTLIQLESWFTATGQTRVTVGPHRARQWLLHMFCCVGSQDSYHHARGLEMLERVRSQPLTNDDLVTSISVPPYTGDLSLAPRISGTVCLSVPQPSPYQVIGCSGFHLSSLYP | soluble |
| SEEDNRAPQLWRKTLTAPAPFADETNCQCQAPHEKLTIAQARLGTPADRPVRVYADGIFDLFHSGHARALMQAKTLFPNSYLLVGVCSDDLTHKFKGFTVMNEAERYEALRHCRYVDEVIRDAPWTLTPEFLEKHKIDFVAHDDIPYSSAGSDDVYKHIKEAGMFVPTQRTEGISTSDIITRIVRDYDVYARRNLQRGYTAKELNVSFINEKRYRFQNQVDKMKEKVKNVEERSKEFVNRVEEKSHDLIQKWEEKSREFIGNFLELFGPDGAWKQMFQERSSRMLQALSPKQSPVSSPTRSRSPSRSPSPTFSWLPLKTSPPSSPKAASASISSMSEGDEDEK | soluble |
| SEFVLKHTAFAHLREVGSFPCTLNPHEAESLALVGAMIDQVLELHPGAQRLHIGCDEVYYLGEGEASRRWLQQEQNSTGKLCLSHMRAVASGVKARRPSVTPLVWDDMLRDLPEDQLAASGVPQLVEPVLWDYTADLDVHGKVLLMQKYRRCGFPQLWAASAFKGATGPSQAVPPVEHHLRNHVQWLQVAGSGPTDSLQGIILTGWQRYDHYSVLCELLPAGVPSLAACLQLLLRGGFDEDVKAKVENLLGISSLEKTDPVREGAGSFPGSNILALVTQVSLHLRSSVDALLEGNRYVTGWFSPYHRQRKLIHPVMVQHIQPAALSLLAQWSTLVQELEAALQLAFYPDAVEEWLEENVHPSLQRLQALLQDLSEVSAPPLPPTSPGRDVAQDP | not soluble |
| SEKAVHSSTTSGPAVPGETTKTGTSIIDTAASAVQSFAPVNQIHQHLCAFHFYADDMARQVEAHHFCSHVNEEMRQCLIYDGPDANARLIGLEYIVSEKLFMTLPDEEKKLWHSHEWEVKGGFLFMPGVPGAIQRKDLDKVAKTYGKVFHFWQVDLGHELPIGLPNVMMAVTRDGQLFHEMIQEAEKRFGVSVEGERDSRAYMSGPELGIHPLANGGGKGMKLELREVDIKPVESVGSVFV | soluble |
| SEPQEERETQVAAWLKKIFGDHPIPQYEVNPRTTEILHHLSERNRVRDRDVYLVIEDLKQKASEYESEAKYLQDLLMESVNFSPANLSSTGSRYLNALVDSAVALETKDTSLASFIPAVNDLTSDLFRTKSKSEEIKIELEKLEKNLTATLVLEKCLQEDVKKAELHLSTERAKVDNRRQNMDFLKAKSEEFRFGIKAAEEQLSARGMDASLSHQSLVALSEKLARLKQQTIPLKKKLESYLDLMPNPSLAQVKIEEAKRELDSIEAELTRRVDMMEL | soluble |
| SEQIMSSQQVARRMMLDIGDKPQEHLVAIYLDTQNRIIQQKTVFIGGVRRSIAEPREILYYACHLMATSLIVVHNHPSGEAYPSRNDIDFTQKIKRSCDDLGICLLDHLIVGKSTYYSFREEREDFEL | not soluble |
| SGANISGGSPEFDRNDDVYSRKLRLVDLPENCVALIMTRLDPPEICRLARLNRMSRRASSADFIWESKLPANYRVIAHKVFDEITLTKLIKKDLYAKLSQPNLFDDGTKELWIDKNTGRLCLSISSKALRITGIDDRRYWSHIPTDESRFQSAAYVQQIWWFEVGGEFEIQFPSGTYSLFFRIQLGKTSKRLGRRICNSEHIHGWDIKPVRFQLATSDNQQAVSLCYLNNNPGSWSHYHVGDFKVTNPDVSTGIKFSMTQIDCTHTKGGLCIDSVLILPKECAKEVIGSQ | soluble |
| SGGGGKAWPTHVVCSDSGLEVLYQSCDPLQDFGFSVEKCSKQLKSNINIRFGIILREDIKELFLDLALMSQGSSVLNFSYPICEAALPKFSFCGRRKGEQIYYAGPVNNPEFTIPQGEYQVLLELYTEKRSTVACANATIMCS | soluble |
| SGKCYLSLHEHNSSANRGACAQICRRGYTVKDKDSGLELDIENQYIMSPKDLKTIHFINKMMDAGVRVFKIEGRARGPEYVYTVCRCYKEAIEAYCNGTYDEESIGRWDEQLATVFNRGFWDGYYLGQRLGEWTHRYGSGATRQKIYVGKGIKYFSRLGVAEFEIESGELHIGDEIVITGPTTGVIIQKVEEIRYELQTVEKATKGQRISIPVKEKVRPSDKLYRFDKRE | not soluble |
| SGQRPSLPMLATDERSTDKESPNEDREFVPCSSLDVRRIYPKGPLLVLPEKIYLYSEPTVKELLPFDVVINVAEEANDLRMQVPAVEYHHYRWEHDSQIALDLPSLTSIIHAATTKREKILIHSQCGLSRSATLIIAYIMKYHNLSLRHSYDLLKSRADKINPSIGLIFQLMEWEVALNAKT | soluble |
| SGRPVAELLRKIHTSKALLDMLKRLGKEPLNPGALLSQLKQAVFAVQQSSPLIQEGIKYLEEHLHEVHFGEKVVCHCDVNHNNWLLSEDNQLYLIDWDGAMIADPAMDLGPLLYHYVEKPAWESWLSMYGIELTESLRLRMAWYVLSETITFIAWHKAKGNDKE | not soluble |
| SGVPVYICSSLKPDALAEAAEHQADGSFFVPRAKGLRTQKQWLAFYSESRGSVYVDEGAEHALSEQGKSLLMSGIAGIEGHFSRMDTVTVYSKATKQPLGKGRVLFGSAAAEDLLKSRKAKGVFIHRDDWISITPEIRLLLTEF | not soluble |
| SHMLEDPCTSKKVRAARTLLAKNLSFNITEDELKEVFEDALEIRLVSQDGKSKGIAYIEFKSEADAEKNLEEKQGAEIDGRSVSLYYTGEKGGTRG | soluble |
| SHMQPFVYMAAPARIVFSAGSSADVAEEIRRLGLSRALVLSTPQQKGDAEALASRLGRLAAGVFSEAAMHTPVEVTKTAVEAYRAAGADCVVSLGGGSTTGLGKAIALRTDAAQIVIPTTYAGSEVTPILGQTENGVKTTMRGPEILPEVVIYDAELTLGLPVAISMTSGLNAMAHAAEALYARDRNPIASMMAVEGLRAMIEALPVVRQAPHDIGARETALYGAWLCGTVLGAVGMSLHHKLCHTLGGSLDLPHAETHAVLLPHTIAYVEEAAPNLLAPLAALVGGRAGAGLFDFAARLGAPSSLAALGVGADDLDPMAELATANPYWCPRPIEKTAIRDLLQRAFEGARPA | soluble |
| SHSLGWIFGMPCNQRSSTKASCEEVFDPTEESYLNIETSL | soluble |
| SHVETGPNGEQIRKHAGQKRTYKAISESYAFLPREAVTRFLMSCSECQKRMHLNPDGTDHKDNGKPPTLVTSMIDYNMPITMAYMKHMKLQLLNSQQDEDESSIESDEFDMSDSTRMSAVNSDLSSNLEERMQSPQNLHGQQDDDSAAESFNGNETLGHSSIASGGTHSREMGDSNSDGKTGLEQDEQPLNLSDSPLSAQLTSEYRIDDHNSNGKNKYKNLLISDLKMEREARENGSKSPAHSYSSYDSGKNESVDRGAEDLSLNRGDEDEDDHEDHDDSEKVNETDGVEAERLKAFNDESAPADKQCKPEATQATYSTSAVPGSQDVLYINGNGTYSYHSYRGLGGGLLNLNDASSSGPTDLSMKRQLATSSGSSSSSNSRPQLSPTEINAVRQLVAGYRESAAFLLRSADELENLILQQN | soluble |
| SITDILSAEDIAAALQECQDPDTFEPQKFFQTSGLSKMSASQVKDIFRFIDNDQSGYLDGDELKYFLQKFQSDARELTESETKSLMDAADNDGDGKIGADEFQEMVHS | soluble |
| SKRFVIGIGGVTNGGKTTLAKSLQKHLPNCSVISQDDFFKPESEIDIDENGFLQYDVLEALNMEKMMSAVSCWMENPGSSAGPAALESAQGVPILIIEGFLLFNYKPLDTIWNRSYFLTVPYEECKRRRSTRVYEPPDPPGYFDGHVWPMYLKHRQEMSSITWDIVYLDGTRSEEDLFSQVYEDVKQELEKQNGL | soluble |
| SKRVVFVTVGTTSFDALVKAVVSQNVKDELQKRGFTHLLIQMGRGIFFPTKCDGADGSLVVDYFTFSSSIADYIRSASLVISHAGSGSIFETLKLGKPLIVVVNEDLMDNHQCELAEALEERKHLYYTRPHSLHQTLTKMELGSLVQYTPGDGTPVARIIDRFLG | soluble |
| SLDRGEQGLLKTEPVAEEGEDAVTMLSAPEALTEEEQEELRRELTKVEEEIQTLSQVLAAKEKHLAELKRKLGISSLQEFKQNIAKGWQDVTATNAYKKTSETLSQAGQKASAAFSSVGSVITKKLEDVKNSPTFKSFEEKVENLKSKVGGAKPAGGDFGEVLNSTANATSTMTTEPPPEQMTES | soluble |
